Key:
[1] = biological target: T1, Histone H4 (X. laevis), in the nucleosome core particle (X. laevis, UniProt P62799 1-103); test: crystal structure; Orc1 BAH L79I mixed with nucleosome 3:1, complex purified by gel filtration; sitting drop at 4 °C, 6 mM Na-cacodylate pH 6.0, 0.4 mM spermine-HCl, 2 mM MgCl2, 1.75% PEG 400; 3.3 Å; details: both partners purified
T1 construct: histone H4, X. laevis; Stood in the crystal as part of the nucleosome m12; source: bacterial expression vector

[2] = biological target: Histone H2B (X. laevis), in the nucleosome core particle (X. laevis, UniProt P02281 1-126); test: as above; details: both partners purified

B1: Orc1 BAH L79I mutant (domain or fragment)
chain: MAKTLKDLQGWEIITTDEQGNIIDGGQKRLRRRGAKTEHYLKRSSDGIKLGRGDSVVMHNEAAGTYSVYMIQELRLNTINNVVELWALTYLRWFEVNPLAHYRQFNPDANILNRPLNYYNKLFSETANKNELYLTAELAELQLFNFIRVANVMDGSKWEVLKGNVDPERDFTVRYICEPTGEKFVDINIEDVKAYIKKVEPREAQEYLKDLTLP
modifications: N-alpha-acetyl on A2 (acetylated N-terminus visible in the structure)
notes: Orc1 BAH domain, S. cerevisiae, amino acids 1-214, L79I; Used for the crystal structure and in EMSA; source: SF9 insect cells (baculovirus), purified (Ni-NTA, SP-Sepharose FF, Superdex-200)
Does B1 bind [1]?
Result: binds

Does B1 bind [2]?
Result: binds

From publication PMC6602975, “Structure and function of the Orc1 BAH-nucleosome complex” (Nature Communications, 2019)
